Laboratory results reported in patent publication US20240124586A1 (WUXI BIOLOGICS IRELAND, published 2024).
Changes are numbered by the printed parent chain.

T1: human CD19 on CD19+ B cell lines (Ramos, Raji) (human, UniProt P15391 20-556)
T1 sequence (looked up): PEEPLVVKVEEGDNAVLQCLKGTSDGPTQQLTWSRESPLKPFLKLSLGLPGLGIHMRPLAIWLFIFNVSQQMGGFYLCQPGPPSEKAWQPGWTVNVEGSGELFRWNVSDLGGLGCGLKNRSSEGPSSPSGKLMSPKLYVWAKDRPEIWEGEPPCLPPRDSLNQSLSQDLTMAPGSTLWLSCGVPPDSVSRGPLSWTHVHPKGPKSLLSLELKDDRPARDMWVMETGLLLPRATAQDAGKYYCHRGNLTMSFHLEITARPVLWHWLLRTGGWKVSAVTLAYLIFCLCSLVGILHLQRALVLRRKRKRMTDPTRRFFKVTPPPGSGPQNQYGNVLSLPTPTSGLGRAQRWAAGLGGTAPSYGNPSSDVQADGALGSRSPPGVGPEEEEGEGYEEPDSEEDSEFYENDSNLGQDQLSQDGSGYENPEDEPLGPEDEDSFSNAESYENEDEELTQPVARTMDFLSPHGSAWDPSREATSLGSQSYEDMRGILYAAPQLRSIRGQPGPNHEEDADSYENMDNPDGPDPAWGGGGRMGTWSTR

B1: E17-Design_2-QQQQ (IgG1), bispecific anti-CD3 x CD19 (bispecific antibody)
heavy 1: not shown
light 1: DIVMTQSPDSLAVSLGERATINCKSSQSLLNSRTRKNYLAWYQQKPGQPPKLLIYWASTRQSGVPDRFSGSGSGTDFTLTISSLQAEDVAVYYCTQSHTLRTFGGGTKVEIKPDIQNPDPAVYQLRDSKSSDKSVCLFTDFDSQTQVSQSKDSDVYITDKCVLDMRSMDFKSNSAVAWSQKSDFACANAFQNSIIPEDTFFPSPESS
heavy 2: QMQLVQSGPEVKKPGTSVKVSCKASGYAFTSYNMYWVRQARGQRLEWIGYIDPYNGDTTYNQKFKGRVTITRDMSTSTAYMELSSLRSEDTAVYYCLTTAYAMDYWGQGTLVTVSSASTKGPSVFPLAPSSKSTSGGTAALGCLVKDYFPEPVTVSWNSGALTSGVHTFPAVLQSSGLYSLSSVVTVPSSSLGTQTYICNVNHKPSNTKVDKRVEPKSCDKTHTCPPCPAPEAAGGPSVFLFPPKPKDTLMISRTPEVTCVVVDVSHEDPEVKFNWYVDGVEVHNAKTKPREEQYNSTYRVVSVLTVLHQDWLNGKEYKCKVSNKALPAPIEKTISKAKGQPREPQVCTLPPSREEMTKNQVSLSCAVKGFYPSDIAVEWESNGQPENNYKTTPPVLDSDGSFFLVSKLTVDKSRWQQGNVFSCSVMHEALHNHYTQKSLSLSPGK
light 2: DIQLTQSPSFLSASVGDRVTITCSASSTVNYMHWYQQKPGKAPKLLIYSTSNLASGVPSRFSGSGSGTEFTLTISSLQPEDFATYYCHQWSSYPYTFGQGTKLEIKRTVAAPSVFIFPPSDEQLKSGTASVVCLLNNFYPREAKVQWKVDNALQSGNSQESVTEQDSKDSTYSLSSTLTLSKADYEKHKVYACEVTHQGLSSPVTKSFNRGEC
B2: T1U6.G19.IgG4, bispecific anti-CTLA-4 x PD-1 (bispecific antibody)
heavy: not shown
light 1: not shown
light 2: SYELTQPLSVSVALGQTARITCGGDNIGNKDVHWYQQKPGQAPVLVIYRDSNRPSGIPEGFSGSNSGNTATLTISRAQAGDEADYYCQVWDSIWVFGGGTKLTVLPDIQNPDPAVYQLRDSKSSDKSVCLFTDFDSQTQVSQSKDSDVYITDKCVLDMRSMDFKSNSAVAWSQKSDFACANAFQNSIIPEDTFFPSPESS
notes: Symmetric tetravalent format G19; T1 (ipilimumab) on top, U6 (W3055_1.153.7) as TCR-chimeric Fab at the C-terminus
B3: U6T1.G19.IgG4, bispecific anti-PD-1 x CTLA-4 (bispecific antibody)
heavy: not shown
light 1: SYELTQPLSVSVALGQTARITCGGDNIGNKDVHWYQQKPGQAPVLVIYRDSNRPSGIPEGFSGSNSGNTATLTISRAQAGDEADYYCQVWDSIWVFGGGTKLTVLGQPKAAPSVTLFPPSSEELQANKATLVCLISDFYPGAVTVAWKADSSPVKAGVETTTPSKQSNNKYAASSYLSLTPEQWKSHKSYSCQVTHEGSTVEKTVAPTECS
light 2: not shown
notes: Symmetric tetravalent format G19; also called U6T1 in G19 format
B4: T3-Design_5 (IgG1), normal orientation (antibody)
heavy: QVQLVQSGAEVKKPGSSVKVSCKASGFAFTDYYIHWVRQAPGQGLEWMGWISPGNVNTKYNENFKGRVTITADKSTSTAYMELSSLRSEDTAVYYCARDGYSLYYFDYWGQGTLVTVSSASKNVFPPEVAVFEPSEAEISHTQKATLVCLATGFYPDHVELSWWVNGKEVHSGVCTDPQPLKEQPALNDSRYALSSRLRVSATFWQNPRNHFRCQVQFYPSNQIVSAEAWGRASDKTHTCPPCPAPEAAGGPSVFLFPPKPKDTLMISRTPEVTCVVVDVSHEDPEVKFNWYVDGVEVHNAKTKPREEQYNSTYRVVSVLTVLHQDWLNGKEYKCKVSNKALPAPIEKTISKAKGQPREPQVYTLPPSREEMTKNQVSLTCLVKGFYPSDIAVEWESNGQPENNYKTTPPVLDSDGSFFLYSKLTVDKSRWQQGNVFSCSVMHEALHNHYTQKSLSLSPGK
light: B1 light 1 with P113R, D114T, I115V, Q116A, N117A, Q146N, Q180N, Q191N
notes: Monospecific IgG-like TCR chimera; tested as supernatant
B5: T3-Design_6a (IgG1), normal orientation (antibody)
heavy: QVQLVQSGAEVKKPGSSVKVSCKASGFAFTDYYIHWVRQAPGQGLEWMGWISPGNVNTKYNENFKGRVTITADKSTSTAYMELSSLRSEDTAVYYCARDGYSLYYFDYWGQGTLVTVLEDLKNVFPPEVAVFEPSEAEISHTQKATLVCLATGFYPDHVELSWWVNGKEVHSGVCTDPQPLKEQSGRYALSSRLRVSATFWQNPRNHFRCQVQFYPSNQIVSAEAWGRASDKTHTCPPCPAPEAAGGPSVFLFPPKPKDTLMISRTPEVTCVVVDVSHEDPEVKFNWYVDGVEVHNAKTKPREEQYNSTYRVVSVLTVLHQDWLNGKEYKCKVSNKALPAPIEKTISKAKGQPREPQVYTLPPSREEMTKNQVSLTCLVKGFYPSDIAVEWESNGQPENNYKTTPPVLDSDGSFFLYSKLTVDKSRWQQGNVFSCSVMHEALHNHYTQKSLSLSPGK
light: B1 light 1 with Q146N, Q180N, Q191N
notes: as for B4
B6: T3-Design_1 (IgG1), normal orientation (antibody)
heavy: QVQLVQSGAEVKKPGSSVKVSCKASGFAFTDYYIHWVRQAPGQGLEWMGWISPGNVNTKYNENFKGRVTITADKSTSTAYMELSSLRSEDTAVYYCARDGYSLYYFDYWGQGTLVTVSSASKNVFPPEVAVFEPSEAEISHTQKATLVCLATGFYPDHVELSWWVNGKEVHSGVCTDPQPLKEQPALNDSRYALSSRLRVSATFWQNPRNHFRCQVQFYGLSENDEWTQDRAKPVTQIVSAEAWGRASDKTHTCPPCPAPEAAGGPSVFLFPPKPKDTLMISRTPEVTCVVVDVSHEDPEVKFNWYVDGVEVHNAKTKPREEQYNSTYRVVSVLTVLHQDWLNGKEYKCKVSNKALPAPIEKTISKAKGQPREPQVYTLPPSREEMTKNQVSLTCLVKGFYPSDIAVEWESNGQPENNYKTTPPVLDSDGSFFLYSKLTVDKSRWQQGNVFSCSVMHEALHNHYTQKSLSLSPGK
light: B1 light 1 with P113R, D114T, I115V, Q116A, N117A, Q146N, Q180N, Q191N
notes: Monospecific IgG-like chimera of T3 variable domains with TCR CBeta/CAlpha; tested as Expi293 supernatant
B7: T3-Design_6 (IgG1), normal orientation (antibody)
heavy: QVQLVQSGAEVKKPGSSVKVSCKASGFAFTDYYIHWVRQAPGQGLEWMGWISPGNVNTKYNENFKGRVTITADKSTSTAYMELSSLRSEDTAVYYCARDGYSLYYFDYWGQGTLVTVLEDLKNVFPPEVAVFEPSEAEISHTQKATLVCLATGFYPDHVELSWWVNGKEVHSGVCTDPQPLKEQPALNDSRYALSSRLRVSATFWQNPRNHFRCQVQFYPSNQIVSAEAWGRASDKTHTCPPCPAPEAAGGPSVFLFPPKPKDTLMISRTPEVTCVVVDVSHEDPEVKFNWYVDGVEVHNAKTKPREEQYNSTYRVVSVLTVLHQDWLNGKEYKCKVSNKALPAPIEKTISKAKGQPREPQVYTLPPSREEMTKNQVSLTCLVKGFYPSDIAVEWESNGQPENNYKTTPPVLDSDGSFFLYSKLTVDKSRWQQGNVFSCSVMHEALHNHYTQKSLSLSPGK
light: B1 light 1 with Q146N, Q180N, Q191N
notes: as for B4
B8: T3-Design_2 (IgG1), normal orientation (antibody)
heavy: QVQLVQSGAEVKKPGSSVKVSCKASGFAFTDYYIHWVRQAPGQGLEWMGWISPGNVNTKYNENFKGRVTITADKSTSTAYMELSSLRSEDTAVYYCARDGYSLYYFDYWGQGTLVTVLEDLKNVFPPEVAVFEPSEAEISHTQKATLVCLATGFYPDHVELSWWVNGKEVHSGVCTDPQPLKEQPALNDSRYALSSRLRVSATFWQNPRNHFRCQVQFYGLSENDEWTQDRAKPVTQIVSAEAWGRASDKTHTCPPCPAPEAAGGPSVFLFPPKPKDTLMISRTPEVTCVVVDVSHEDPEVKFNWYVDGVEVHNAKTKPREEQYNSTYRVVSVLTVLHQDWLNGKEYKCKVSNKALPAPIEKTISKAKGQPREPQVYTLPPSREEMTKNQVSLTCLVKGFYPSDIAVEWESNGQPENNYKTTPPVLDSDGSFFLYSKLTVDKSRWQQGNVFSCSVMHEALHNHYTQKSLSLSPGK
light: B1 light 1 with Q146N, Q180N, Q191N
notes: as for B4
B9: T3-Design_7 (IgG1), crossed orientation (antibody)
heavy: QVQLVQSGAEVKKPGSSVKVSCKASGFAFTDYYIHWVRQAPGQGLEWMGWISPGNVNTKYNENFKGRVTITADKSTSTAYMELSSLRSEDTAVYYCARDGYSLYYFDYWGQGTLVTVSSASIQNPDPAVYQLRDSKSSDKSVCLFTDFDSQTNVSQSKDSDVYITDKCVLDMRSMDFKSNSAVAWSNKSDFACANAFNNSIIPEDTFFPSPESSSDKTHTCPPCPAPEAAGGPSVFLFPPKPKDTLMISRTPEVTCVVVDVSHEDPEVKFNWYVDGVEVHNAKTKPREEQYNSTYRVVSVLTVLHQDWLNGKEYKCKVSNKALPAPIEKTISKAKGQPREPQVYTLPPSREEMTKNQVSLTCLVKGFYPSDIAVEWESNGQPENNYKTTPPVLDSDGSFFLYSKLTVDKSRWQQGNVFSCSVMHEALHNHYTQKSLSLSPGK
light: DIVMTQSPDSLAVSLGERATINCKSSQSLLNSRTRKNYLAWYQQKPGQPPKLLIYWASTRQSGVPDRFSGSGSGTDFTLTISSLQAEDVAVYYCTQSHTLRTFGGGTKVEIKLEDLKNVFPPEVAVFEPSEAEISHTQKATLVCLATGFYPDHVELSWWVNGKEVHSGVCTDPQPLKEQPALNDSRYALSSRLRVSATFWQNPRNHFRCQVQFYPSNQIVSAEAWGRA
notes: as for B4
B10: T3-Design_8 (IgG1), crossed orientation (antibody)
heavy: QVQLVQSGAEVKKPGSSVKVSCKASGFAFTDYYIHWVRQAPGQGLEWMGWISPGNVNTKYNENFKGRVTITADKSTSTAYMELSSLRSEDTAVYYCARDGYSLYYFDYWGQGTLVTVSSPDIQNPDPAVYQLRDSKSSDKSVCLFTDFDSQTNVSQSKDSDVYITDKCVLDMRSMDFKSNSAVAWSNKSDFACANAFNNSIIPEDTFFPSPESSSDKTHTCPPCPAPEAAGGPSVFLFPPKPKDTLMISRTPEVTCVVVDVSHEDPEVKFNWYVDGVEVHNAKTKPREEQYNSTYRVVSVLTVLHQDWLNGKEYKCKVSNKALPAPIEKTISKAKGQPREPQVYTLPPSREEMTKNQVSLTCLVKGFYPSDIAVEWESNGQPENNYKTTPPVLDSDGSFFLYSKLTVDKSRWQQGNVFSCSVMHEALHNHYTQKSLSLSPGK
light: B9 light
notes: as for B4
B11: T3-Design_3 (IgG1), crossed orientation (antibody)
heavy: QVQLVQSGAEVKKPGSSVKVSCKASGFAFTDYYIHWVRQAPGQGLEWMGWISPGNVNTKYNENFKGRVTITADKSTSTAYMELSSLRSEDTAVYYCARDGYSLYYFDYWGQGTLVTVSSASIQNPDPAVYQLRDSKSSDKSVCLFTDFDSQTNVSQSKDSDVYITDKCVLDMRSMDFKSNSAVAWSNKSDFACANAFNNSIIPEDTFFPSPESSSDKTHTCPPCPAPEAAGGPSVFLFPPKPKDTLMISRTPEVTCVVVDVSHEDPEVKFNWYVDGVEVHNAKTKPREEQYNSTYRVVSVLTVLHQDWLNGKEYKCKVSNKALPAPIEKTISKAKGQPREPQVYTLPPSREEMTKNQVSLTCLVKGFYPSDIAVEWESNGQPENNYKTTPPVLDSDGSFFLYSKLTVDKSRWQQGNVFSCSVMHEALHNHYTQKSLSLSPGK
light: DIVMTQSPDSLAVSLGERATINCKSSQSLLNSRTRKNYLAWYQQKPGQPPKLLIYWASTRQSGVPDRFSGSGSGTDFTLTISSLQAEDVAVYYCTQSHTLRTFGGGTKVEIKLEDLKNVFPPEVAVFEPSEAEISHTQKATLVCLATGFYPDHVELSWWVNGKEVHSGVCTDPQPLKEQPALNDSRYALSSRLRVSATFWQNPRNHFRCQVQFYGLSENDEWTQDRAKPVTQIVSAEAWGRA
notes: as for B4
B12: T3-Design_4 (IgG1), crossed orientation (antibody)
heavy: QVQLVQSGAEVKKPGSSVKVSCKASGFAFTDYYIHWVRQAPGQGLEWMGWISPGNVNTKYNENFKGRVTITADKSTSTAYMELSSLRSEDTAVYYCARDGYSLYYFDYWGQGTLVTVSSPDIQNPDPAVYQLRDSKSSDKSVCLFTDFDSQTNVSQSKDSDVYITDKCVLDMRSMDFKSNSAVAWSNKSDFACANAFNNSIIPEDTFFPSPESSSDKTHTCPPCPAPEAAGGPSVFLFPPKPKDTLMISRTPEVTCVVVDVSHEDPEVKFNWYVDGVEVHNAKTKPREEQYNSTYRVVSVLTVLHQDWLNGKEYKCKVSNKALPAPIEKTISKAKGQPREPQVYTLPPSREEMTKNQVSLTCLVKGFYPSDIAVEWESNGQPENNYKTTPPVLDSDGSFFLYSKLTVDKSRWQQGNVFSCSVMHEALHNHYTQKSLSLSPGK
light: B11 light
notes: as for B4
B13: T3-Design_2-QQQQ (IgG1) (antibody)
heavy: not shown
light: B1 light 1
notes: De-glycosylation mutant of Design_2; tested as supernatant
B14: T3-Design_2-ASKE (IgG1) (antibody)
heavy: not shown
light: B1 light 1 with Q146A, Q180S, Q191K
notes: as for B13
B15: T3-Design_2-AAAA (IgG1) (antibody)
heavy: not shown
light: B1 light 1 with Q146A, Q180A, Q191A
notes: as for B13
B16: T3-Design_2-QQQQQ (IgG1) (antibody)
heavy: not shown
light: B1 light 1 with N173Q
notes: as for B13
B17: T3-Design_2-QSKE (IgG1) (antibody)
heavy: not shown
light: B1 light 1 with Q180S, Q191K
notes: as for B13
B18: WBP316-BMK1.IgG4 (antibody, V domains shown)
VH: QVQLVESGGGVVQPGRSLRLSCAASGFTFSSYTMHWVRQAPGKGLEWVTFISYDGNNKYYADSVKGRFTISRDNSKNTLYLQMNSLRAEDTAIYYCARTGWLGPFDYWGQGTLVTVSS
VL: not shown
notes: also called WBP316-BMK1 (Ipilimumab)

The binders below were run against T1, human CD19 on CD19+ B cell lines … (assay: cell-based or functional assay).

Row | Binder | EC50 of T-cell directed killing of malignant B cells (PI-positive Raji cells) [pM]
1 | B1 | 624

Each binder was assayed against T2, human PD-1 on engineered CHO-S cells (W305-CHO-S.hPro1.C6) (human, UniProt Q15116 25-288) (assay: FACS on human PD-1 engineered cells).
T2 construct: whole, on cells; also called human PD-1 engineered cells; PD-1+ cells
T2 sequence (Q15116 25-288, change not shown): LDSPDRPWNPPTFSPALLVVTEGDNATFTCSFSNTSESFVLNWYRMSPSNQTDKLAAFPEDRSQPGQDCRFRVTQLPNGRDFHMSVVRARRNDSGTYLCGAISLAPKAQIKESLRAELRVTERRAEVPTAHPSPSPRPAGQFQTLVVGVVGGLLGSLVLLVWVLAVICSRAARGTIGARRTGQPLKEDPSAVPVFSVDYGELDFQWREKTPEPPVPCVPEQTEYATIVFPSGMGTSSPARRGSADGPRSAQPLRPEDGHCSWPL
Procedure: Engineered human PD-1 expressing cells W305-CHO-S.hPro1.C6 were seeded at 1×10⁵ cells/well in U-bottom 96-well plates (COSTAR 3799). Antibodies with 3.16-fold titration in 1% BSA DPBS from 200 nM to 0.002 nM were added to the cells. The plates were incubated at 4° C. for 1 hour. After wash, […] 1:125 diluted PE-labeled goat anti-human antibody (Jackson 109-115-098) was added to each well and the plates were incubated at 4° C. for 1 hour. The binding of the antibodies onto the cells was tested by flow cytometry and the mean fluorescence intensity (MFI) was analyzed by FlowJo.

Row | EC50 [pM] | Binder
2 | 7930 | B2
3 | 2200 | B3

The binders below were run against T3, human CD3 on CD3+ Jurkat cells (human, UniProt P07766 23-207; P09693 23-182; P04234 22-171) (assay: FACS on CD3+ Jurkat cells, supernatant, 0.4 nM).
T3 construct: whole, on cells; also called CD3 positive Jurkat cells
T3 sequence (P07766 23-207, chain 1 of 3): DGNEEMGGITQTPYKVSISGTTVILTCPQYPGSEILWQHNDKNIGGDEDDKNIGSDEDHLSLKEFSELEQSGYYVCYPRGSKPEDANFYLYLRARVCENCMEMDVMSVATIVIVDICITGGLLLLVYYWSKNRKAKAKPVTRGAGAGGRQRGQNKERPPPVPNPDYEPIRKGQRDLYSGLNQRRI
T3 sequence (P09693 23-182, chain 2 of 3): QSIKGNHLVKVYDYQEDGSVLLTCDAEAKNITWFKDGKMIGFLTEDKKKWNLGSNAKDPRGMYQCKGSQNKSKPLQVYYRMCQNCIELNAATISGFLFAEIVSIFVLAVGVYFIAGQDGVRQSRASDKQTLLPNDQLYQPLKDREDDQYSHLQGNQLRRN
T3 sequence (P04234 22-171, chain 3 of 3): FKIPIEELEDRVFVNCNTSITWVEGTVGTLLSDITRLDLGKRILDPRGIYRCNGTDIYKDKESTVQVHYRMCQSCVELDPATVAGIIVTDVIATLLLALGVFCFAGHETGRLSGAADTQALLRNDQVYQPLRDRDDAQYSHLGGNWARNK
Procedure: (§1) To confirm whether the expressed proteins had correct folding and retained the original function, we tested their binding on CD3 positive Jurkat cells. FACS bindings of all the samples were carried out at three different concentrations: […].

Row | MFI at 0.4 nM [MFI] | Binder
4 | 1860 | B4
5 | 2820 | B5
6 | 2190 | B6
7 | 3910 | B7
8 | 2620 | B8
9 | 1930 | B9
10 | 1830 | B10
11 | 982 | B11
12 | 1210 | B12

Each binder was assayed against T3, human CD3 on CD3+ Jurkat cells (assay: FACS on CD3+ Jurkat cells, supernatant, 5.0 nM).
Procedure: as §1

Row | MFI at 5.0 nM [MFI] | Binder
13 | 5390 | B4
14 | 5790 | B5
15 | 5440 | B6
16 | 5790 | B7
17 | 5830 | B8
18 | 6320 | B9
19 | 6410 | B10
20 | 5090 | B11
21 | 5440 | B12

These binders were tested against T3, human CD3 on CD3+ Jurkat cells (assay: FACS on CD3+ Jurkat cells, supernatant, 0.032 nM).
Procedure: as §1

Row | MFI at 0.032 nM [MFI] | Binder
22 | 249 | B4
23 | 405 | B5
24 | 292 | B6
25 | 613 | B7
26 | 380 | B8
27 | 259 | B9
28 | 243 | B10
29 | 137 | B11
30 | 168 | B12

These binders were tested against T3, human CD3 on CD3+ Jurkat cells (assay: FACS on CD3+ Jurkat cells, Expi293 supernatant).

Row | EC50 (read off the curve) [pM] | Binder
31 | ~600 | B13
32 | ~500 | B14
33 | ~500 | B15
34 | ~400 | B16
35 | ~500 | B17

These binders were tested against T4, cynomolgus CTLA-4 on engineered 293F cells (W316-293F.cynoPro1.F1.Pool) (cynomolgus) (assay: FACS binding to cynomolgus CTLA-4 engineered cells).
T4 construct: whole, on cells; also called cynomolgus CTLA-4 engineered cells
Procedure: 4-fold titrated Abs with 1% BSA DPBS from 40 μg/ml to 0.00004 μg/ml were added to the cells. Plates were incubated at 4° C. for 1 hour. After wash, […] 1:150 diluted PE-labeled goat anti-human antibody (Jackson 109-115-098) was added to each well and the plates were incubated at 4° C. for 1 hour. The binding of the antibodies onto the cells was tested by flow cytometry and the mean fluorescence intensity (MFI) was analyzed by FlowJo.

Row | EC50 [pM] | Top(MFI) | Binder
36 | 674 | 8050 | B18
